The values that follow come from paper doi:10.1101/2024.06.13.598860, “The Mlh1-Pms1 endonuclease uses ATP to preserve DNA discontinuities as strand discrimination signals to facilitate mismatch repair”.

Data set [1] deals with T1, Mlh1-Pms1 (Saccharomyces cerevisiae (yeast), UniProt P38920;P14242 1-769;1-873). The experiment in a line: EMSA; 120 mM NaCl, no ATP; 20 mM HEPES-KOH (pH not given), 0.1 mM DTT, 2 mM MgCl2, 40 ug/mL BSA, 6% glycerol; plasmid DNA 3.8 nM, 10 min room temperature, agarose EMSA; oligonucleotides plus 120 mM NaCl, 10 min 4 C, 4% PAGE. To be noted: protein: recombinant, copies: 1;1, label: 5'-32P on CMO169.

Data set [2] concerns the target T1, Mlh1-Pms1. As to the kind of experiment: EMSA; 120 mM NaCl, 0.5 mM ATP; 20 mM HEPES-KOH (pH not given), 0.1 mM DTT, 2 mM MgCl2, 40 ug/mL BSA, 6% glycerol; plasmid DNA 3.8 nM, 10 min room temperature, agarose EMSA; oligonucleotides plus 120 mM NaCl, 10 min 4 C, 4% PAGE. The conditions noted are these: protein: recombinant, copies: 1;1, label: 5'-32P on CMO169.
The mark [3] stands for this setting: nicked duplex, blunt ends, 1:2 1:3, nick between strands 2 and 3.

T1 sequence (P38920 whole entry, chain 1 of 2): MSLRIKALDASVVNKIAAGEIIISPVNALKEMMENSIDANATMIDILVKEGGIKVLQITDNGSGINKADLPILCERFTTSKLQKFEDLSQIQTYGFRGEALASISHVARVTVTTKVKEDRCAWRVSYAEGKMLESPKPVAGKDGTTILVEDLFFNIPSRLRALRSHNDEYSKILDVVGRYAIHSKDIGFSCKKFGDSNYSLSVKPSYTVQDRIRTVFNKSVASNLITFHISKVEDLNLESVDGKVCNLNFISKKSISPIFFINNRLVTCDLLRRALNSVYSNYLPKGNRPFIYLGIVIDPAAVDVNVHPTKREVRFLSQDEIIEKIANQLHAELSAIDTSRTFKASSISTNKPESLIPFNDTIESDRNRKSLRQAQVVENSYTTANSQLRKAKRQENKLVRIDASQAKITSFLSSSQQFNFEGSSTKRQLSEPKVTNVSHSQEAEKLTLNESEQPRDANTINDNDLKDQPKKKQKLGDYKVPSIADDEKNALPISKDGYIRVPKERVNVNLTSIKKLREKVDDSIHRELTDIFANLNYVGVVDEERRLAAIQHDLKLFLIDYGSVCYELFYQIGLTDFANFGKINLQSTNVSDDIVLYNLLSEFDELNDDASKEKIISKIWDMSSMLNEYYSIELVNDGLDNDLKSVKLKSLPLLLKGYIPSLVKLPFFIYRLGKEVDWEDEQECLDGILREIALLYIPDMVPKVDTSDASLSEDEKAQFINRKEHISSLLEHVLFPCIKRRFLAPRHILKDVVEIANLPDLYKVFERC
T1 sequence (P14242 whole entry, chain 2 of 2): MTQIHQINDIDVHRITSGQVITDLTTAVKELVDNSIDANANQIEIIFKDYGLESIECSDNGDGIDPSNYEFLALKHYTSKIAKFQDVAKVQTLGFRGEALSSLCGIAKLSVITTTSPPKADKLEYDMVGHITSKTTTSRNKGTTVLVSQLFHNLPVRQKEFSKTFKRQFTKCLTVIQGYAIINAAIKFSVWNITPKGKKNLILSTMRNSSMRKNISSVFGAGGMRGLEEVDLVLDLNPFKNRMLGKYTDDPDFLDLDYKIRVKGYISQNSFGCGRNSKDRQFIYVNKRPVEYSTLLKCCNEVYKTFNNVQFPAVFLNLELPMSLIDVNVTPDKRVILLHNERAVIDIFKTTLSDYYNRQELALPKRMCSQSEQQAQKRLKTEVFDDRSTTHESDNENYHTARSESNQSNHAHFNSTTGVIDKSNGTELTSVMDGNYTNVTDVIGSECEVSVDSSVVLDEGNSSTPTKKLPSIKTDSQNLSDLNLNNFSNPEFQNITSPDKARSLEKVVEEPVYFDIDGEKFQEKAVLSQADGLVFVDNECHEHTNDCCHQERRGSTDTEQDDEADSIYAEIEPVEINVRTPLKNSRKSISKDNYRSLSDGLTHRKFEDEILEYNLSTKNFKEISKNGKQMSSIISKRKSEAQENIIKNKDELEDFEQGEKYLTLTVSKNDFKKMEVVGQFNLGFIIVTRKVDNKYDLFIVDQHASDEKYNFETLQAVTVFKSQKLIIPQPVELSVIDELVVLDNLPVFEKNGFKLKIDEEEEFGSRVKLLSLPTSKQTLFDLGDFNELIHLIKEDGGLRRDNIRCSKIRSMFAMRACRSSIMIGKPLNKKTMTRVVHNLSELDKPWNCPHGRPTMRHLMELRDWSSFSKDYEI

B1: intact 75-mer duplex (dsDNA)
DNA 1: TCGACCTAAGTCTAGCAGGTCACGTCACGCTACCGAATTCTGACTTGCTAGGACATCTTTGCTCACGTTGACCCA
DNA 2: TGGGTCAACGTGAGCAAAGATGTCCTAGCAAGTCAGAATTCGGTAGCGTGACGTGACCTGCTAGACTTAGGTCGA
As for B1, the Kd – broadly, the equilibrium constant for the complex coming apart – was found to be 96 ± 20 nM with Mlh1-Pms1 [1] (blunt) and 79 ± 8 nM with Mlh1-Pms1 [2] (blunt).

B2: discontinuous 75-mer duplex (single strand break) (dsDNA)
DNA 1: TCGACCTAAGTCTAGCAGGTCACGTCACGCTACCGAATTCTGACTTGCTAGGACATCTTTGCTCACGTTGACCCA
DNA 2: TGGGTCAACGTGAGCAAAGATGTCCTAGCAAGTCAGA
DNA 3: ATTCGGTAGCGTGACGTGACCTGCTAGACTTAGGTCGA
Regarding B2, the dissociation constant (Kd) with Mlh1-Pms1 [1] (setting [3]) was 79 ± 3 nM; with Mlh1-Pms1 [2] (setting [3]), 77 ± 6 nM.
